Results on three substances are retold here after article PMC8184781, “A histone H3K4me1-specific binding protein is required for siRNA accumulation and DNA methylation at a subset of loci targeted by RNA-directed DNA methylation” (Nature Communications, 2021).

What is called Kd is a measure of binding affinity in units of concentration. As a reminder, the stoichiometry N is a count of units in the complex or per binding partner.

Experiment in all cases: ITC; Microcal PEAQ-ITC, 20 °C; protein about 0.8–0.12 mM (so in the source), peptide about 1.0–1.5 mM; 100 mM NaCl, 20 mM HEPES, 2 mM β-mercaptoethanol (pH 7.0 in the methods, [7.4] in the footnote of Supplementary Table 1)
Background: In ITC the heat of successive injections is recorded.

Experiment [1] deals with RDM15 Tudor domain (residues 598-662), wild type (Arabidopsis thaliana).
The target of experiment [2] is RDM15 Tudor domain (residues 598-662) D645A (Arabidopsis thaliana).
The target in experiment [3] is RDM15 Tudor domain (residues 598-662) Q654A (Arabidopsis thaliana).

In experiment [1], H3K4me2 peptide yielded a dissociation constant Kd of 30.9 µM and a stoichiometry N of 1.03.

As for H3(1-15) K4me1 peptide, the Kd was found to be 62.7 µM in experiment [2] and 60.8 µM in experiment [3]. The stoichiometry N in experiment [2] turned out to be 0.86; in experiment [1], 0.96; in experiment [3], 1.08.

In the case of H3K4me3 peptide, in experiment [1], the dissociation constant (Kd) was found to be 66.2 µM and the stoichiometry N was found to be 0.9.
